Test results from the supplement of paper PMC9112550, “Optimization of the antimicrobial peptide Bac7 by deep mutational scanning” (BMC Biology, 2022).

Each sequence was assayed on Escherichia coli TOP10 (assay: shrunken log2 fold change of peptide-encoding DNA abundance (4.5 h post-induction vs induction); higher = less antimicrobial activity (less host growth inhibition)). Conditions: time post-induction: 4.5 h; library: site-saturation at positions 5, 18, 19, 20.
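Also: peptides expressed intracellularly from a pBAD plasmid library in pooled LB shake-flask culture, induced with 0.3% L-arabinose, DNA abundance read by NGS, three biological replicates, DESeq2 with apeglm shrinkage.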

Which “shrunken log2 fold change” value does the source give for RRIRMRPPRLPRPRPRPSMGPRP here?
The value was 0.0383.

For RRIRGRPPRLPRPRPRPNDYPRP, which “shrunken log2 fold change” value is on record?
The value was -0.0119.

With RRIRNRPPRLPRPRPRPTFEPRP as the sequence, how does the “shrunken log2 fold change” value read?
Its value is -0.0715.

Which “shrunken log2 fold change” value does the source give for RRIRNRPPRLPRPRPRPYDRPRP here?
Its value is -0.12.

Which “shrunken log2 fold change” value does the source give for RRIRKRPPRLPRPRPRPCGSPRP here?
Its value is -0.0192.

With RRIRNRPPRLPRPRPRPGFPPRP as the sequence, how does the “shrunken log2 fold change” value read?
The value was -0.00149.

How did the “shrunken log2 fold change” value turn out when RRIRTRPPRLPRPRPRPDYFPRP was run?
Its value is -0.153.

For RRIRWRPPRLPRPRPRPCQMPRP, which “shrunken log2 fold change” value is on record?
The value was -0.0107.

RRIRYRPPRLPRPRPRPTRDPRP was tested. Which “shrunken log2 fold change” value did it give?
The value was -0.0311.

How did the “shrunken log2 fold change” value turn out when RRIRWRPPRLPRPRPRPEWIPRP was run?
Its value is 0.475.

How did the “shrunken log2 fold change” value turn out when RRIRQRPPRLPRPRPRPGVEPRP was run?
Its value is 0.0735.

How did the “shrunken log2 fold change” value turn out when RRIRCRPPRLPRPRPRPTAYPRP was run?
Its value is -0.137.

How did the “shrunken log2 fold change” value turn out when RRIRDRPPRLPRPRPRPVVWPRP was run?
The value was 0.902.

RRIRGRPPRLPRPRPRPDWRPRP was tested. Which “shrunken log2 fold change” value did it give?
Its value is 0.404.

For RRIRWRPPRLPRPRPRPPGKPRP, which “shrunken log2 fold change” value is on record?
The value was 0.214.

RRIRRRPPRLPRPRPRPQTRPRP was tested. Which “shrunken log2 fold change” value did it give?
The value was 0.511.

With RRIRCRPPRLPRPRPRPSNRPRP as the sequence, how does the “shrunken log2 fold change” value read?
The value was -0.253.

Which “shrunken log2 fold change” value does the source give for RRIRPRPPRLPRPRPRPKVWPRP here?
The value was 0.318.

How did the “shrunken log2 fold change” value turn out when RRIRRRPPRLPRPRPRPRFMPRP was run?
Its value is 0.055.

Which “shrunken log2 fold change” value does the source give for RRIRGRPPRLPRPRPRPIDDPRP here?
Its value is 0.329.

How did the “shrunken log2 fold change” value turn out when RRIRARPPRLPRPRPRPWNCPRP was run?
The value was 0.132.

How did the “shrunken log2 fold change” value turn out when RRIRPRPPRLPRPRPRPCAAPRP was run?
Its value is 0.888.

Which “shrunken log2 fold change” value does the source give for RRIRTRPPRLPRPRPRPVLPPRP here?
Its value is 0.0511.

With RRIRYRPPRLPRPRPRPHWVPRP as the sequence, how does the “shrunken log2 fold change” value read?
The value was 0.0405.

For RRIRKRPPRLPRPRPRPLHQPRP, which “shrunken log2 fold change” value is on record?
The value was 0.393.

RRIRRRPPRLPRPRPRPYPGPRP was tested. Which “shrunken log2 fold change” value did it give?
The value was -0.123.

With RRIRCRPPRLPRPRPRPPNEPRP as the sequence, how does the “shrunken log2 fold change” value read?
The value was 0.309.

With RRIRPRPPRLPRPRPRPFDHPRP as the sequence, how does the “shrunken log2 fold change” value read?
The value was -0.105.

RRIRWRPPRLPRPRPRPQRRPRP was tested. Which “shrunken log2 fold change” value did it give?
The value was 0.358.

With RRIRTRPPRLPRPRPRPLTYPRP as the sequence, how does the “shrunken log2 fold change” value read?
Its value is 0.959.

With RRIRFRPPRLPRPRPRPDFPPRP as the sequence, how does the “shrunken log2 fold change” value read?
The value was -0.0311.

Which “shrunken log2 fold change” value does the source give for RRIRARPPRLPRPRPRPTHTPRP here?
The value was 0.664.

For RRIRERPPRLPRPRPRPQSHPRP, which “shrunken log2 fold change” value is on record?
Its value is -0.268.

Which “shrunken log2 fold change” value does the source give for RRIRYRPPRLPRPRPRPTQDPRP here?
The value was 0.542.

For RRIRQRPPRLPRPRPRPACTPRP, which “shrunken log2 fold change” value is on record?
Its value is -0.475.

For RRIRARPPRLPRPRPRPPRQPRP, which “shrunken log2 fold change” value is on record?
The value was 0.769.

How did the “shrunken log2 fold change” value turn out when RRIRSRPPRLPRPRPRPSSIPRP was run?
The value was -0.379.

For RRIRRRPPRLPRPRPRPTQTPRP, which “shrunken log2 fold change” value is on record?
The value was 0.338.

For RRIRWRPPRLPRPRPRPTGYPRP, which “shrunken log2 fold change” value is on record?
Its value is -0.145.

With RRIRPRPPRLPRPRPRPQQIPRP as the sequence, how does the “shrunken log2 fold change” value read?
The value was -0.124.

With RRIRLRPPRLPRPRPRPCFWPRP as the sequence, how does the “shrunken log2 fold change” value read?
The value was 0.14.

For RRIRTRPPRLPRPRPRPFHVPRP, which “shrunken log2 fold change” value is on record?
Its value is -0.0683.

RRIRARPPRLPRPRPRPCDQPRP was tested. Which “shrunken log2 fold change” value did it give?
Its value is -0.00754.

For RRIRSRPPRLPRPRPRPQQIPRP, which “shrunken log2 fold change” value is on record?
The value was 0.153.

With RRIRCRPPRLPRPRPRPWLHPRP as the sequence, how does the “shrunken log2 fold change” value read?
Its value is -0.305.

With RRIRSRPPRLPRPRPRPQIEPRP as the sequence, how does the “shrunken log2 fold change” value read?
The value was 0.0319.

With RRIRRRPPRLPRPRPRPADDPRP as the sequence, how does the “shrunken log2 fold change” value read?
Its value is 0.213.

Which “shrunken log2 fold change” value does the source give for RRIRGRPPRLPRPRPRPTMSPRP here?
The value was 0.496.

How did the “shrunken log2 fold change” value turn out when RRIRHRPPRLPRPRPRPIMIPRP was run?
Its value is -0.192.

For RRIRMRPPRLPRPRPRPGQTPRP, which “shrunken log2 fold change” value is on record?
The value was -0.00931.

How did the “shrunken log2 fold change” value turn out when RRIRKRPPRLPRPRPRPKICPRP was run?
Its value is 0.0599.

RRIRLRPPRLPRPRPRPAARPRP was tested. Which “shrunken log2 fold change” value did it give?
The value was 0.453.

RRIRWRPPRLPRPRPRPSGMPRP was tested. Which “shrunken log2 fold change” value did it give?
The value was 0.104.

Which “shrunken log2 fold change” value does the source give for RRIRCRPPRLPRPRPRPQAYPRP here?
The value was 0.0414.

For RRIRVRPPRLPRPRPRPEHLPRP, which “shrunken log2 fold change” value is on record?
Its value is -0.171.

RRIRQRPPRLPRPRPRPNPRPRP was tested. Which “shrunken log2 fold change” value did it give?
The value was 0.0565.

For RRIRCRPPRLPRPRPRPLHNPRP, which “shrunken log2 fold change” value is on record?
Its value is -0.264.

With RRIRQRPPRLPRPRPRPFSHPRP as the sequence, how does the “shrunken log2 fold change” value read?
Its value is -0.127.

For RRIRIRPPRLPRPRPRPHFHPRP, which “shrunken log2 fold change” value is on record?
The value was -0.424.

For RRIRGRPPRLPRPRPRPMYWPRP, which “shrunken log2 fold change” value is on record?
Its value is -0.0689.

Which “shrunken log2 fold change” value does the source give for RRIRTRPPRLPRPRPRPSTGPRP here?
The value was -0.285.

With RRIRIRPPRLPRPRPRPMMHPRP as the sequence, how does the “shrunken log2 fold change” value read?
The value was -0.59.

For RRIRVRPPRLPRPRPRPSKTPRP, which “shrunken log2 fold change” value is on record?
Its value is -0.61.

RRIRFRPPRLPRPRPRPHGIPRP was tested. Which “shrunken log2 fold change” value did it give?
Its value is -0.00151.

Which “shrunken log2 fold change” value does the source give for RRIRCRPPRLPRPRPRPSSYPRP here?
Its value is -0.531.

RRIRQRPPRLPRPRPRPWGQPRP was tested. Which “shrunken log2 fold change” value did it give?
The value was 0.000222.

How did the “shrunken log2 fold change” value turn out when RRIRYRPPRLPRPRPRPADVPRP was run?
The value was -0.127.

How did the “shrunken log2 fold change” value turn out when RRIRVRPPRLPRPRPRPGMGPRP was run?
Its value is 0.0724.

With RRIRTRPPRLPRPRPRPPFHPRP as the sequence, how does the “shrunken log2 fold change” value read?
Its value is 0.535.

With RRIRWRPPRLPRPRPRPGFCPRP as the sequence, how does the “shrunken log2 fold change” value read?
Its value is 0.524.

Which “shrunken log2 fold change” value does the source give for RRIRARPPRLPRPRPRPEKSPRP here?
Its value is 1.01.

How did the “shrunken log2 fold change” value turn out when RRIRLRPPRLPRPRPRPDHMPRP was run?
Its value is -0.0422.

RRIRSRPPRLPRPRPRPKINPRP was tested. Which “shrunken log2 fold change” value did it give?
The value was -0.424.

With RRIRKRPPRLPRPRPRPQRNPRP as the sequence, how does the “shrunken log2 fold change” value read?
The value was 0.0463.

RRIRDRPPRLPRPRPRPFAEPRP was tested. Which “shrunken log2 fold change” value did it give?
The value was 0.242.

Which “shrunken log2 fold change” value does the source give for RRIRFRPPRLPRPRPRPKKCPRP here?
Its value is 0.107.

Which “shrunken log2 fold change” value does the source give for RRIRARPPRLPRPRPRPWKMPRP here?
Its value is -0.235.

For RRIRVRPPRLPRPRPRPKDQPRP, which “shrunken log2 fold change” value is on record?
The value was 0.0584.

For RRIRRRPPRLPRPRPRPQVLPRP, which “shrunken log2 fold change” value is on record?
The value was 0.0646.

For RRIRDRPPRLPRPRPRPENMPRP, which “shrunken log2 fold change” value is on record?
Its value is 0.0225.

With RRIRNRPPRLPRPRPRPKNYPRP as the sequence, how does the “shrunken log2 fold change” value read?
Its value is -0.752.

How did the “shrunken log2 fold change” value turn out when RRIRFRPPRLPRPRPRPGDSPRP was run?
Its value is -0.305.

How did the “shrunken log2 fold change” value turn out when RRIRRRPPRLPRPRPRPTLYPRP was run?
The value was 0.595.

For RRIRYRPPRLPRPRPRPWWLPRP, which “shrunken log2 fold change” value is on record?
Its value is -0.0627.

How did the “shrunken log2 fold change” value turn out when RRIRTRPPRLPRPRPRPNARPRP was run?
Its value is -0.0251.

RRIRPRPPRLPRPRPRPFVDPRP was tested. Which “shrunken log2 fold change” value did it give?
The value was -0.319.

Which “shrunken log2 fold change” value does the source give for RRIRPRPPRLPRPRPRPFHAPRP here?
Its value is -0.0472.

Which “shrunken log2 fold change” value does the source give for RRIRLRPPRLPRPRPRPYTGPRP here?
The value was -0.125.

For RRIRVRPPRLPRPRPRPTVNPRP, which “shrunken log2 fold change” value is on record?
The value was -0.171.

For RRIRNRPPRLPRPRPRPGITPRP, which “shrunken log2 fold change” value is on record?
The value was -0.326.

RRIRNRPPRLPRPRPRPRRHPRP was tested. Which “shrunken log2 fold change” value did it give?
The value was 0.0212.

For RRIRFRPPRLPRPRPRPKADPRP, which “shrunken log2 fold change” value is on record?
The value was -0.0989.

RRIRMRPPRLPRPRPRPNDAPRP was tested. Which “shrunken log2 fold change” value did it give?
The value was 0.317.

RRIRHRPPRLPRPRPRPGATPRP was tested. Which “shrunken log2 fold change” value did it give?
The value was 0.0387.

For RRIRYRPPRLPRPRPRPMCQPRP, which “shrunken log2 fold change” value is on record?
Its value is -0.394.

RRIRVRPPRLPRPRPRPESQPRP was tested. Which “shrunken log2 fold change” value did it give?
The value was -0.0489.

Which “shrunken log2 fold change” value does the source give for RRIRHRPPRLPRPRPRPDKSPRP here?
The value was -0.276.

RRIRCRPPRLPRPRPRPQAWPRP was tested. Which “shrunken log2 fold change” value did it give?
The value was -0.23.

For RRIRVRPPRLPRPRPRPPDPPRP, which “shrunken log2 fold change” value is on record?
Its value is 0.342.

Which “shrunken log2 fold change” value does the source give for RRIRTRPPRLPRPRPRPEGPPRP here?
The value was 0.285.

With RRIRNRPPRLPRPRPRPDPSPRP as the sequence, how does the “shrunken log2 fold change” value read?
The value was 0.152.

RRIRPRPPRLPRPRPRPKTKPRP was tested. Which “shrunken log2 fold change” value did it give?
The value was 0.00358.

Which “shrunken log2 fold change” value does the source give for RRIRRRPPRLPRPRPRPMKHPRP here?
The value was -0.191.

With RRIRFRPPRLPRPRPRPIAVPRP as the sequence, how does the “shrunken log2 fold change” value read?
Its value is -0.116.

How did the “shrunken log2 fold change” value turn out when RRIRGRPPRLPRPRPRPFFNPRP was run?
Its value is 0.186.

With RRIRMRPPRLPRPRPRPDNGPRP as the sequence, how does the “shrunken log2 fold change” value read?
The value was -0.0901.

With RRIRKRPPRLPRPRPRPIQTPRP as the sequence, how does the “shrunken log2 fold change” value read?
Its value is 0.0355.

RRIRDRPPRLPRPRPRPEEEPRP was tested. Which “shrunken log2 fold change” value did it give?
Its value is 0.00884.

With RRIRLRPPRLPRPRPRPGAKPRP as the sequence, how does the “shrunken log2 fold change” value read?
The value was -0.548.
